Measured values reported in US20130203680A1, “FOLATE CONJUGATES FOR TREATING INFLAMMATION OF THE EYE” (ENDOCYTE, INC., priority 2010, published 2013).

How the values were obtained:
Pharmacokinetic analysis = experiment: Pharmacokinetic analysis
Source text: Table printed on a drawing sheet, Fig. 15C
Title: Pharmacokinetic analysis
The patent's description of the figure: FIG. 15. Pharmacokinetics of EC0746 and potential metabolites aminopterin (AMT) and AMT hydrazide (EC0470) in Rats. Panel A. Plasma concentrations (nmol/L) of EC0746, AMT and AMT hydrazide following single subcutaneous EC0746 (500 nmol/kg) administration. Panel B. Plasma concentrations (nmol/L) of AMT following single subcutaneous AMT (500 nmol/kg) administration. c. Pharmacokinetic analysis of the results of (a.) and (b.).
First reader's note: Each column is an analyte detected in rat plasma after dosing the test compound named in row 1; values are means of n=3.

RAW264.7 cells = experiment: XTT cell viability / proliferation of RAW264.7 cells; format: cell-based, murine
Protocol: (§1) For XTT cell viability and TNF-α inhibition assays, RAW264.7 cells in 96-well plates were treated with vehicle (culture medium) or 10-fold serial dilutions of EC0746 without or with 100-fold excess free folate. After 2 h incubation, the drug-containing media were replaced and the cells were allowed to incubate further for 70 h. Four hours prior to the end of incubation, LPS was added to the treated cells at a final concentration of 100 ng/mL. 100 μL of the culture supernatants were collected for TNF-α analysis using a commercial ELISA kit. See FIG. 2, Panel B. The cell viability was assessed by adding XTT (2,3-bis(2-methoxy-4-nitro-5-sulfo-phenyl)-2H-tetrazolium-5-carboxanilide) to the remaining medium for an additional 4 h following the manufacturer's instructions (Roche Applied Science, Indianapolis, Ind.) See FIG. 2, Panel A. Both results were expressed as % absorbance (minus background) relative to untreated control in triplicates.
(§2) RAW264.7 cells in 96-well plates were treated with vehicle (culture medium) or 10-fold serial dilutions of EC0932 without or with 100-fold excess free folate. […] The cell viability was assessed by adding XTT (2,3-bis(2-methoxy-4-nitro-5-sulfo-phenyl)-2H-tetrazolium-5-carboxanilide) to the remaining medium for an additional 4 h following the manufacturer's instructions (Roche Applied Science, Indianapolis, Ind.). […]

[1] = system: LPS-stimulated TNF-α production in RAW264.7 cells; experiment: LPS-stimulated TNF-α production in RAW264.7 cells (ELISA); format: cell-based, murine; settings: 72 h incubations
Protocol: as §1, §2

[2] = Plasma pharmacokinetics after a single subcutaneous dose of EC0746 or aminopterin
Protocol: Female Lewis rats with rounded tip jugular vein catheters (Harlan) were fed regular rodent diet and used in this study. The animals were given a single subcutaneous dose of EC0746 at 500 nmol/kg. Whole blood samples (300 μl) were collected from the animals at the following time points: 1 min, 10 min, 30 min, 1 h, 2 h, 3 h, 4 h, and 8 h after injection. The blood samples were placed into anti-coagulant tubes containing 1.7 mg/mL of K3-EDTA and 0.35 mg/mL of N-Maleoyl-beta-alanine (0.35 mg/mL). Plasma samples were obtained by centrifugation for 3 min at ˜2,000 g and stored at −80° C. The amount of EC0746 and its released base drugs (EC0470 & aminopterin) were determined by HPLC using the EC0746 injection solution as the standard (see FIG. 4). […] A similar method was used to determine the plasma pharmacokinetics of aminopterin (see FIG. 5).
Thus, the plasma concentrations of EC0746 and two primary metabolites, AMT and AMT hydrazide, were determined by LC/MS/MS after a single subcutaneous EC0746 administration. […] For comparison, the pharmacokinetics of subcutaneously dosed AMT (500 nmol/kg) was also examined (FIG. 15b).

Serum protein binding = format: in vitro ADME
[3] = Maximum tolerated dose in folate-deficient rats; format: in vivo, rat
Protocol: Healthy rats were administered a subcutaneous injection of the indicated dose of aminopterin or EC0746 biweekly for 2 weeks; control animals, no treatment, 100 nmole/kg aminopterin, 50 nmole/kg aminopterin, 500 nmole/kg EC0746, or 2000 nmole/kg EC0746. The animals were weighed daily. See FIG. 6, Panels A and B. A dose of […] of aminopterin in folate deficient rats is above the MTD; therefore, the projected MTD of EC0746 would be <0.5 μmol/kg based solely on ˜20% free drug release shown in the previous Example. However, the MTD of EC0746 is actually 2.0 μmol/kg, which is equivalent to 0.4 μmol/kg, or ˜8× higher than the MTD for free aminopterin. On a molar basis for total aminopterin, the MTD is 40× higher.
Since the toxicity of antifolates can be easily masked by rodent diets enriched with folate, healthy rats on a folate-deficient diet (Harlan) were used to determine the maximum-tolerated-dose levels (MTD) of EC0746, AMT and MTX. The animals were given biweekly injections of EC0746, AMT, and MTX for two weeks. The MTD dose was defined as the dose that had caused at least 13-14% weight loss combined with clinical signs of stress and at least one animal in the >MTD dose group needed to be euthanized. Standard hematologic and blood chemistry parameters were examined as needed along with histopathology. The MTDs of EC0746, MTX and AMT were determined to be 2000, 1000, and 50 nmol/kg, respectively. At above the MTD dose level, the main toxicities of EC0746 were similar to those of AMT and MTX, including manifested gastrointestinal distress (diarrhea), swollen muzzle, immunosuppression (bone marrow, thymus), low white-blood-cell count, low platelet count, and infections. […] Overall, EC0746 was approximately 40-fold less toxic than AMT and 2-fold less toxic than MTX on an equimolar basis in these folate-deficient animals; however, its toxicity profile at above MTD levels was not dissimilar from that of AMT and MTX.

[4] = biological target: folate receptors (FR-α) of KB cells (Homo sapiens, UniProt P15328); settings: FR-α positive, 3H-folic acid
folate receptors (FR-α) of KB cells, sequence (P15328 25-234): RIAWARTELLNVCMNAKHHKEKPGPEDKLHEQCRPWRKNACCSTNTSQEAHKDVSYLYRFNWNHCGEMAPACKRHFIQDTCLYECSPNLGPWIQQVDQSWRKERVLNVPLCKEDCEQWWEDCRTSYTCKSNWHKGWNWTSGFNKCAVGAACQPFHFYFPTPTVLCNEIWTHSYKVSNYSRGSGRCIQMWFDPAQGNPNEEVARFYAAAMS

[5] = biological target: folate receptors (FR-β) of CHO cells (Homo sapiens, UniProt P14207); settings: 3H-folic acid
folate receptors (FR-β) of CHO cells, sequence (P14207 17-230, species assumed): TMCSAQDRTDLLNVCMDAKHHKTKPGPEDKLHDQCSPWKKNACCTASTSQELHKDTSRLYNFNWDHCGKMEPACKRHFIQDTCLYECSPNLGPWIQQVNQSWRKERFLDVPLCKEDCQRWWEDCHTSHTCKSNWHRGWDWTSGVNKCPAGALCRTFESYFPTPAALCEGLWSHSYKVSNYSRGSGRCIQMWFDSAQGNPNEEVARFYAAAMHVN

DHFR = biological target: T1, DHFR (Mus musculus, UniProt P00375); experiment: DHFR activity in lysate of treated RAW264.7 cells; format: cell-based, murine; settings: 10 μM, 2-h pulse, 22-h chase
T1 construct: endogenous in cells; host or cells: RAW264.7
T1 sequence (P00375 1-187): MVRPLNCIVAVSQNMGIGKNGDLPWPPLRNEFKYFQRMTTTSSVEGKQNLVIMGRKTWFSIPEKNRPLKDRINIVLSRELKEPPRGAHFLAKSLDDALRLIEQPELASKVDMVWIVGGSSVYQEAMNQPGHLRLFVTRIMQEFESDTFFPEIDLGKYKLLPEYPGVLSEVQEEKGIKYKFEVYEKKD
Protocol: RAW264.7 cells were treated with vehicle (medium), EC0746 (100 nM) without or with 100-fold excess free folate, aminopterin (AMT, 100 nM), methotrexate (MTX, 100 nM), or excess free folate alone (10 μM). […] At the end of incubation, the cells were lysed and the DHFR activity in cell lysates was measured using a commercial DHFR assay kit (Sigma-Aldrich, Saint Louis, Mo.).

[6] = after single s.c. dose of EC0746 500 nmole/kg
[7] = rat, in vivo, subcutaneous, folate-deficient rats, biweekly injections for two weeks

In the case of `Nc1nc(N)c2nc(CNc3ccc(C(=O)N[C@@H](CCC(=O)O)C(=O)O)cc3)cnc2n1` [AMT | AMT], the “AUC0-t |” value (Pharmacokinetic analysis) is reported as 61.3 nmol/min/mL, the “CL or CL_F |” value (Pharmacokinetic analysis) is reported as 1.7 mL/min and the “Cmax |” value (Pharmacokinetic analysis) is reported as 601 nM. For the same molecule, the “T1/2(elimination) | min” value (Pharmacokinetic analysis) was 140 min, the “Tmax | min” value (Pharmacokinetic analysis) was 30 min and the “Vz or Vz_F | mL” value (Pharmacokinetic analysis) was 328 mL.
With `NNC(=O)CC[C@H](NC(=O)c1ccc(NCc2cnc3nc(N)nc(N)c3n2)cc1)C(=O)O` [EC0470, aminopterin gamma-hydrazide, reference compound] the “cell proliferation in the XTT assay, potency of potential EC0746 metabolites” value (RAW264.7 cells; 72 h incubations) was “equally potent”, the “LPS-stimulated TNF-α production, potency of potential EC0746 metabolites” value [1] was “equally potent” and the “Tmax of released base drug” value ([2]; released from EC0746 after single s.c. dose 500 nmol/kg) was about 60 min. The “delay of plasma peak from the EC0746 Cmax” value ([2]; released from EC0746 in EC0746-dosed rats) was 30 min.
In the case of `N=c1[nH]c(N)nc2ncc(CNc3ccc(C(=O)N[C@@H](CCC(=O)NNC(=O)OCCSSC[C@H](NC(=O)[C@H](CCC(=O)NC[C@H](O)[C@@H](O)[C@H](O)[C@H](O)CO)NC(=O)[C@H](CCC(=O)O)NC(=O)[C@H](CCC(=O)NC[C@H](O)[C@@H](O)[C@H](O)[C@H](O)CO)NC(=O)[C@H](CCC(=O)O)NC(=O)[C@H](CCC(=O)NC[C@H](O)[C@@H](O)[C@H](O)[C@H](O)CO)NC(=O)CC[C@H](NC(=O)c4ccc(NCc5cnc6nc(N)[nH]c(=O)c6n5)cc4)C(=O)O)C(=O)O)C(=O)O)cc3)nc12` [EC0746], the EC50 (RAW264.7 cells; 2 hour treatment followed by 72 hours in treatment-free medium) is reported as 0.33 nM, the “Area Under Curve for free drug” value [2, 6] is reported as 7.3 nmol·min/mL and the “Cmax for free drug (aminopterin+aminopterin hydrazide)” value [2, 6] is reported as 34 nM. For the same molecule, the “Cmax for free drug as share of the total” value [2, 6] was 9.6%, the “time at which Cmax for free drug (aminopterin+aminopterin hydrazide) is reached” value [2, 6] was 60 min and the half-life ([2]; female, Lewis, rat, in vivo, sc, 500 nmol/kg) was about 35 min. The Cmax ([2]; female, Lewis, rat, in vivo, sc, 500 nmole/kg) was 321 nM, the “bioavailability after subcutaneous administration” value ([2]; rats, s.c.) was “bioavailable” and the “Area Under Curve for EC0746” value ([2]; single s.c. dose of EC0746 500 nmole/kg) was 32.5 nmol·min/mL. The fraction unbound (Serum protein binding) was about 0.54, the “fold less toxic than AMT on an equimolar basis” value ([3]; folate-deficient animals) was “approximately 40 fold” and the “fold less toxic than MTX on an equimolar basis” value ([3]; folate-deficient animals) was about 2 fold. For the same molecule, the “MTD (free drug equivalent) fold higher than the MTD for free aminopterin” value ([3]; rat, in vivo) was about 8 ×, the “MTD fold higher than aminopterin on a molar basis for total aminopterin” value ([3]; rat, in vivo) was 40 × and the MTD at 2 weeks ([3]; rat, in vivo, sc, s.c. biweekly for 2 weeks) was 2 µmol/kg. The MTD at 2 weeks [3, 7] was 2 µmol/kg, the “gastrointestinal-associated toxicities at MTD dose” value ([3]; rats, at MTD) was “less gastrointestinal-associated toxicities than AMT and MTX” and the “relative folate receptor affinity (folic acid = 1)” value (from here on “relative folate receptor affinity”) [4] was 0.50. For the same molecule, the “relative folate receptor affinity” value [5] was 0.270.
With `Nc1nc(N)c2nc(CNc3ccc(C(=O)N[C@@H](CCC(=O)O)C(=O)O)cc3)cnc2n1` [aminopterin, reference compound] the “elimination half-life of metabolite released from EC0746” value ([2]; female, Lewis, rat, in vivo, sc) was about 117 min, the “delay of plasma peak from the EC0746 Cmax” value ([2]; rat, in vivo) was 30 min and the MTD ([3]; folate-deficient rats, biweekly injections for two weeks) was 50 nmol/kg.
With `Nc1nc2ncc(CNc3ccc(C(=O)N[C@@H](CCC(=O)O)C(=O)O)cc3)nc2c(=O)[nH]1` [folic acid] the “effect of folic acid alone on DHFR activity” value (DHFR) was “did not have any impact”.
In the case of `CN(Cc1cnc2nc(N)nc(N)c2n1)c1ccc(C(=O)N[C@@H](CCC(=O)O)C(=O)O)cc1` [methotrexate, reference compound], the MTD at 2 weeks [3, 7] is reported as 1 µmol/kg, the “relative folate receptor affinity” value [4] is reported as 0.018 and the “relative folate receptor affinity” value [5] is reported as 0.005.
